The record followed here is patent US20240116985A1 (published 2024).

For experiment [1], the target named is T1, full-length beta-Catenin (Uniprot ID P35222) (Homo sapiens (Human), UniProt P35222 1-781).
T1 construct: The assay text says 'full-length'; also called bCat; B-Catenin
T1 sequence: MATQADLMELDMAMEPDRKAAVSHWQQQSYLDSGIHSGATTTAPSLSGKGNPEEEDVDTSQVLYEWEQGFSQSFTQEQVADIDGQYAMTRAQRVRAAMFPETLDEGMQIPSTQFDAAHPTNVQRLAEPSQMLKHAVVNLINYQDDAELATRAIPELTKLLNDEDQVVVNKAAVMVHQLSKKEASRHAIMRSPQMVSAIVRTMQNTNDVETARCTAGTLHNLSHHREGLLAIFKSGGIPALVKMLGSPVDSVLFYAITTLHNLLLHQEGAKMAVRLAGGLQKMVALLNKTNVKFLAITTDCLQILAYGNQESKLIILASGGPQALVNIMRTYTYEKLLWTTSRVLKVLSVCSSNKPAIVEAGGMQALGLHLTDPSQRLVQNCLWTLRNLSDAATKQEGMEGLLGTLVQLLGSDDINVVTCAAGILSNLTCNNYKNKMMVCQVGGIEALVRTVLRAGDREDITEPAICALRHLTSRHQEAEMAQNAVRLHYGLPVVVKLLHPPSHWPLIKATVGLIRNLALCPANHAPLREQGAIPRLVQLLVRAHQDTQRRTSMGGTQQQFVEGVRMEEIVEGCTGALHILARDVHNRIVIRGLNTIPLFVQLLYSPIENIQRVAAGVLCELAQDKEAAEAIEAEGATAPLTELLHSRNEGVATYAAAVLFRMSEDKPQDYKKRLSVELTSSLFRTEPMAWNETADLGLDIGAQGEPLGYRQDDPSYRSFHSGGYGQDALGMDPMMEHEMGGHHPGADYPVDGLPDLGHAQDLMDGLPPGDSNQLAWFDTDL
Kind of experiment: fluorescence polarization competition; peptide titrated against 10 nM full-length beta-catenin + 10 nM 5FAM-TCF4(10-53) probe. In a few lines: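 Readings followed a light-protected 60-minute incubation at 20° C. Each read was done in duplicate. Curves were fit with a 1:1 binding model including hill slope, and stated concentrations are final.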
(In general: Fluorescence polarisation rises when a labelled molecule tumbles more slowly, as on binding a larger partner.)

The next experiment concerns the target T2, B-cat-Halo (UniProt P35222 1-781).
T2 sequence (looked up): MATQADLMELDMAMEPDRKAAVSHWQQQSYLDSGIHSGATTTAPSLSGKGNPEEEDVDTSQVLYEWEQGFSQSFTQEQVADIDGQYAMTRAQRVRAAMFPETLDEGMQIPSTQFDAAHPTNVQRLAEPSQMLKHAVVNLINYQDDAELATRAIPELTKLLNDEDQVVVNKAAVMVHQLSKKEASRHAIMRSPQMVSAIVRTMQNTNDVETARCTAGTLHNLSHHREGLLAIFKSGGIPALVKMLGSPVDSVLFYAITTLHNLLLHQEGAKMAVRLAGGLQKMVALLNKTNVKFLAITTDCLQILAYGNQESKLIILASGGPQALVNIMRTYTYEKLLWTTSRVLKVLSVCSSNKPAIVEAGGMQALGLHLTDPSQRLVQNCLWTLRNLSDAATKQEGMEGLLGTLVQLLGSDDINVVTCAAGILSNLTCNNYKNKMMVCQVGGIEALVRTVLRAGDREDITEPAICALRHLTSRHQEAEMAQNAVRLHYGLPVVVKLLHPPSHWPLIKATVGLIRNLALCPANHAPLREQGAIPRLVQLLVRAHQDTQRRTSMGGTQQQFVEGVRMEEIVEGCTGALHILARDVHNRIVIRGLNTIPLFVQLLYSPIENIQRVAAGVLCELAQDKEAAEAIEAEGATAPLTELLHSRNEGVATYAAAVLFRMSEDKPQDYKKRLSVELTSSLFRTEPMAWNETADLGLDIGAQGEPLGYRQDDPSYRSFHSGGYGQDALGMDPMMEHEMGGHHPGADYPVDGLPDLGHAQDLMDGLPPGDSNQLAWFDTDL
Briefly: cell-based or functional assay.

Experiment [2] concerns the target T3, beta-catenin in DLD1 TCF/LEF luciferase reporter cells (UniProt P35222 1-781).
T3 sequence (looked up): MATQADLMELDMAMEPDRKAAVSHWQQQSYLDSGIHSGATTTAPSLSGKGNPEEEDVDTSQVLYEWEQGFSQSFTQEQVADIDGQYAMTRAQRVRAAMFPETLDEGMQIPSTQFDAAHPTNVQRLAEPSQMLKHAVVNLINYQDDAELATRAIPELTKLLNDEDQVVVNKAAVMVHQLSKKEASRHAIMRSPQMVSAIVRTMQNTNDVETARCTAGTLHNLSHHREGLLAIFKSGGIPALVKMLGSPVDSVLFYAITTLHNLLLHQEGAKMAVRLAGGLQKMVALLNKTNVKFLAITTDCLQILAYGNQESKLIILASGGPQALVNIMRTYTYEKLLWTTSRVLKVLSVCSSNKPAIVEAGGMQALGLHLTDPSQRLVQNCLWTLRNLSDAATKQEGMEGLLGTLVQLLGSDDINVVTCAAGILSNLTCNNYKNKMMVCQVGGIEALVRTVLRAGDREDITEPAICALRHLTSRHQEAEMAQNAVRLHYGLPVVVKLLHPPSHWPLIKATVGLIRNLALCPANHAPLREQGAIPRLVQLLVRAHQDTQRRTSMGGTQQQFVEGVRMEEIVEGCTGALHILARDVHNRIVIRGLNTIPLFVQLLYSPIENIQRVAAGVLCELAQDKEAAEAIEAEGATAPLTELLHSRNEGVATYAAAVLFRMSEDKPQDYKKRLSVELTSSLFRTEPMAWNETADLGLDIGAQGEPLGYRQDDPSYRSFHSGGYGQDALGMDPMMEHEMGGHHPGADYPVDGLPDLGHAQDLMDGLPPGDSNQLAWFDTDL
Kind of experiment: cell-based or functional assay.

For experiment [3], the target named is B-cat-Halo (beta-catenin HaloTag construct expressed in HEK293 cells) (UniProt P35222 1-781). Briefly: cell-based or functional assay.
For experiment [4], the target named is T4, B-cat-Halo (NanoBRET construct expressed in HEK293 cells) (UniProt P35222 1-781, HaloTag NanoBRET 618 Ligand bound in the assay).
T4 sequence (looked up): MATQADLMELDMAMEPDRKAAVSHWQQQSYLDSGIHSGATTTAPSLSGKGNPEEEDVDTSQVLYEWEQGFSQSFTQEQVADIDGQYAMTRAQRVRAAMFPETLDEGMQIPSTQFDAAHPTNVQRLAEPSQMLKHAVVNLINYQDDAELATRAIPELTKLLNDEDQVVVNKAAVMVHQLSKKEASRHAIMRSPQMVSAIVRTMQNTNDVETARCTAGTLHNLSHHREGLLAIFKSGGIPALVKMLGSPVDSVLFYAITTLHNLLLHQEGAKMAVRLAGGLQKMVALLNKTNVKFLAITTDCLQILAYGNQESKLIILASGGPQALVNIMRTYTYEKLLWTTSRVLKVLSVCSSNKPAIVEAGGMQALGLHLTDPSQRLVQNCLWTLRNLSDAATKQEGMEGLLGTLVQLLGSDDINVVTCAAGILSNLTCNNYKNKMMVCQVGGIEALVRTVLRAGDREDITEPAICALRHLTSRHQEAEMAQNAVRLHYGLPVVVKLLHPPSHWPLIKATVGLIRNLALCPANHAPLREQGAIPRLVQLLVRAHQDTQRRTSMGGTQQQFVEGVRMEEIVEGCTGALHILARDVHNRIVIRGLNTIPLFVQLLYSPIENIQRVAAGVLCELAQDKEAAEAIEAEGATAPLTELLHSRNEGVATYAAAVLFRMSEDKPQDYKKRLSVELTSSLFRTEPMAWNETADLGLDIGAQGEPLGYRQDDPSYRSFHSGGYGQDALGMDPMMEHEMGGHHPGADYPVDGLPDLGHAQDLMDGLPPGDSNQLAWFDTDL
Kind of experiment: cell-based or functional assay.

Experiment [5] deals with T5, beta-catenin (in DLD1 TCF/LEF luciferase reporter cells) (UniProt P35222 1-781).
T5 sequence (looked up): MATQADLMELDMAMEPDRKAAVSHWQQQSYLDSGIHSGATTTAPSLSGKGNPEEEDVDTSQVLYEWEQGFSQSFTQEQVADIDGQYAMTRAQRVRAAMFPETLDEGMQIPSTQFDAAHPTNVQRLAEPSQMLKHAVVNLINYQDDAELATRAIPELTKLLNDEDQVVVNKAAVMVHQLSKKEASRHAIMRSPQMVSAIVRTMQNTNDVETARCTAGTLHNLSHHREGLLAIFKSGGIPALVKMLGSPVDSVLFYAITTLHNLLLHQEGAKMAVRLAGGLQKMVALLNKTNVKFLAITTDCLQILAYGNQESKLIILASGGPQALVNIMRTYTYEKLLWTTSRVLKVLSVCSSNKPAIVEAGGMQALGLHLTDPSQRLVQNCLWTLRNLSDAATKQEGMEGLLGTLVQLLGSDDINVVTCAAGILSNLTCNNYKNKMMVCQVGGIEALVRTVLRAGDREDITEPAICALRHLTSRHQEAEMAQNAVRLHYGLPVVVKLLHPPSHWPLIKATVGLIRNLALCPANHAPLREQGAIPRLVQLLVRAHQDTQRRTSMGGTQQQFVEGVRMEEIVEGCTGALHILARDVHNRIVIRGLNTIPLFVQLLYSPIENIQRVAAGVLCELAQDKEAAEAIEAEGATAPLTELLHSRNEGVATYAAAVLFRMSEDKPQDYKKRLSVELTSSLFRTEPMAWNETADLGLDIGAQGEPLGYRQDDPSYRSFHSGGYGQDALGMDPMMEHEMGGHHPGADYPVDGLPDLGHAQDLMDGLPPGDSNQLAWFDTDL
Briefly: cell-based or functional assay.

Starred links: 1 amine or outer side, 2 acyl side, 3 side chain; linkers in the order of their positions; H or OH if unused. Positions of bridges follow the written chain, without caps; N, C: chain ends. Non-standard residues stand in square brackets, D forms with d. Primed or numbered codes have the meaning given here. PyrS2(3) = (S)-3-amino-1-((pent-4-en-1-yloxy)carbonyl)pyrrolidine-3-carboxylic acid, stapling residue, C=CCCCOC(=O)N1CC[C@@](N[*:1])(C(=O)[*:2])C1; PyrS2″ = (S)-3-amino-1-((pent-4-en-1-yloxy)carbonyl)pyrrolidine-3-carboxylic acid (stapling residue), C=CCCCOC(=O)N1CC[C@@](N[*:1])(C(=O)[*:2])C1; B5(16) = 2-amino-2-(pent-4-en-1-yl)hept-6-enoic acid = 2,2-bis(4-pentenyl)glycine (stitching residue), C=CCCCC(CCCC=C)(N[*:1])C(=O)[*:2]; B5(24) = 2-amino-2-(pent-4-en-1-yl)hept-6-enoic acid, 2,2-bis(4-pentenyl)glycine (stitching residue), C=CCCCC(CCCC=C)(N[*:1])C(=O)[*:2]; TfeGA = (S)-2-amino-3-((carboxymethyl)(2,2,2-trifluoroethyl)amino)propanoic acid, O=C([C@H](CN(CC(=O)[*:3])CC(F)(F)F)N[*:1])[*:2]; B5″ = 2,2-bis(4-pentenyl)glycine, stitching residue, C=CCCCC(CCCC=C)(N[*:1])C(=O)[*:2]; Phe(2-Cl) = N[C@@H](Cc1ccccc1Cl)C(=O)O; Phe(2-OMe) = COc1ccccc1C[C@H](N)C(=O)O; Bta = N[C@@H](Cc1csc2ccccc12)C(=O)O; αAllylPro = C=CC[C@@]1(C(=O)O)CCCN1; tBuAla = CC(C)(C)C[C@H](N)C(=O)O; 3Thi = N[C@@H](Cc1ccsc1)C(=O)O; S8 = C=CCCCCCC[C@](C)(N)C(=O)O

With Ac-[αAllylPro]DA[B5(24)]DEAAFN[S8][Phe(2-OMe)][Bta]Q-NH2 (staple 1-4, 4-11, Stapled peptide composition) [I-437], the IC50 – broadly, the concentration that gives 50% inhibition – in experiment [1] stood at 0.026 µM. Moreover, the “NanoBRET Abs IC50” value with B-cat-Halo is 17.5 µM.

B1: I-1019: Ac-PL3-Asp-Npg-B5-Asp-Asp-Ala-Ala-Phe-Ser-PyrS2-2C1F-BztA-Ser-NH2 (peptide)
peptide: Ac-[αAllylPro]D[tBuAla][B5(16)]DDAAFS[PyrS2″][Phe(2-Cl)][Bta]S-NH2
modifications: staple 1-4, 4-11; not fully specified; printed as Ac-PL3-Asp-Npg-B5-Asp-Asp-Ala-Ala-Phe-Ser-PyrS2-2C1F-BztA-Ser-NH2
For the molecule B1, in experiment [2], the “DLD1 4% Abs IC50” value came to 7.8 µM. The “NanoBRET Abs IC50” value in experiment [3] stood at 9.6 µM.

On to Ac-[αAllylPro]D[tBuAla][B5″]D[TfeGA]AAFN[PyrS2(3)][3Thi][Bta]Q-NH2 (staple 1-4, 4-11) [I-762], for which the “NanoBRET Abs IC50” value in experiment [4] was 14 µM. Also, in experiment [5], the “DLD1 4% Abs IC50” value came out at 7.9 µM.
